Measurements: patent publication US11708423B2, “Chimeric engulfment receptor molecules and methods of use” (CERO THERAPEUTICS, INC., priority 2017, dated 2023)

Experiments:
[1] = tested on: HCC827 lung adenocarcinoma cells; assay: MTT viability and bright field microscopy of HCC827 cells with CER T cells and Osimeritinib; type: cell-based; conditions: Osimeritinib 1 nM, 48 hours, CD4+ T cells
Excerpt: CD4+ T cells were transduced with lentiviral vectors encoding various CERs (CER21, CER108, CER104, CER129, CER27, CER120, CER122, CER123, CER124, or CER126). Mock transduced (vector only) CD4+ T cells were used as control. CER21 comprises a Tim4 binding domain, Tim4 transmembrane domain, and an engulfment signaling domain comprising a primary engulfment signaling domain comprising a TLR8 signaling domain. CER21 has a polypeptide sequence as set forth in SEQ ID NO:88. CER108 has a polypeptide sequence as set forth in SEQ ID NO:137 and comprises a Tim4 binding domain, Tim4 transmembrane domain, and an engulfment signaling domain comprising a primary engulfment signaling domain comprising a DAP12 signaling domain and a secondary engulfment signaling domain comprising a TLR8 signaling domain. CER104 has a polypeptide sequence as set forth in SEQ ID NO:133 and comprises a Tim4 binding domain, Tim4 transmembrane domain, and an engulfment signaling domain comprising a primary engulfment signaling domain comprising a TLR8 signaling domain and a secondary engulfment signaling domain comprising a DAP12 signaling domain. CER129 has a polypeptide sequence as set forth in SEQ ID NO:177 and comprises a Tim4 binding domain, Tim4 transmembrane domain, and an engulfment signaling domain comprising a primary engulfment signaling domain comprising a TLR8 signaling domain and a secondary engulfment signaling domain comprising a TRAF2 signaling domain. CER27 comprises a Tim4 binding domain, Tim4 transmembrane domain, and an engulfment signaling domain comprising a primary engulfment signaling domain comprising a TLR2 signaling domain. CER27 has a polypeptide sequence as set forth in SEQ ID NO:93. […] T cells were washed away, and the number of viable HCC827 cells was quantified using a calorimetric MTT assay. […]

ALK+A549 cells = assay: Phagocytosis of ALK inhibitor treated A549 ALK+ cells by CER T cells (fluorescent microscopy); type: cell-based; conditions: CD4+ T cells, 4, 8, and 16 hours co-culture
Excerpt: An ELM4-ALK translocation was introduced into A549 cells. […] CD4 T cells are modified to express CER104 or CER117 and labeled with CELLTRACE Violet. CER117 has a polypeptide sequence set forth in SEQ ID NO:144 and comprises a Tim4 binding domain, a Tim4 transmembrane domain, and an engulfment signaling domain comprising a primary engulfment signaling domain comprising a TLR8 signaling domain and a secondary engulfment signaling domain comprising a TRAF6 signaling domain. The ALK+A549 cells were then co-cultured with CER104- or CER117-expressing CD4+ T cells or Mock-transduced (vector only) T cells for 12 hours and images were obtained by fluorescent microscopy at 40× magnification (FIGS. 62A-E). White arrows indicate exemplary phagocytic events (pH rodo red cell targets within CELLTRACE Violet labeled CD4+ T cells).
CER123- and CER126-transduced CD4+ and CD8+ T cells were labeled with CELLTRACE Violet and co-cultured with the A549 ALK-positive cells. Co-cultured cells were imaged by fluorescent microscopy at 63× magnification after 12 hours (FIGS. 63A-F). White arrows indicate exemplary phagocytic events (pHrodo red targets within CELLTRACE Violet-labeled CD4 T cells).
Phagocytosis of Alectinib-treated ALK+A549 cells by CER-expressing T cells was also quantified. […] Bar graph in FIG. 64A represents quantification of percentage phagocytosis calculated as ((number of phagocytic target events)/(total number of effector cells))*100. Events were calculated from fluorescent 3×3 stitched images at 40×resolution after 12 hours of co-culture. Bar graph in FIG. 64B represents quantification of adjusted phagocytic index calculated as (median area ratio of target events in effector cells*phagocytosis). Events calculated from fluorescent 3×3 stitched images at 40×resolution after 12 hours of co-culture.
CER21−, CER27−, CER30−, CER108−, CER110−, CER112−, CER120−, CER123−, CER124−, CER126−, CER127−, or CER104-transduced CD4+ T cells were co-cultured with Alectinib-treated A549 cells at a 1:1 ratio for 12 hours. Phagocytic events were calculated from 3×3 stitched fluorescent microscopy images at 40X resolution. […] Images were obtained after 12 hours of co-culture. Yellow triangles indicate exemplary phagocytic events (pHrodo red targets within CELLTRACE violet labeled CD4+ T cells).
A time course study of phagocytic uptake of tumor cells by CER-transduced T cells was performed. CD4+ T cells were transduced with a lentiviral vector comprising CER122 nucleic acid. Mock-transduced (vector only) CD4+ T cells were used as control. CER122-transduced T cells were labeled with CELLTRACE violet and co-cultured with pHrodo red labeled A549 ALK+ lung adenocarcinoma cells. Fluorescent microscopy images were obtained at 4, 8, and 16 hours co-culture (FIG. 72C), and % phagocytosis (FIG. 72A) and phagocytic index (FIG. 72B) were calculated.

B1: CER122: Tim4 binding and transmembrane domains, TLR2 primary and DAP12 secondary signaling domains; SEQ ID NO:149 (protein)
chain: MSKGLLLLWLVTELWWLYLTPAASEDTIIGFLGQPVTLPCHYLSWSQSRNSMCWGKGSCPNSKCNAELLRTDGTRIISRKSTKYTLLGKVQFGEVSLTISNTNRGDSGVYCCRIEVPGWFNDVKKNVRLELRRATTTKKPTTTTRPTTTPYVTTTTPELLPTTVMTTSVLPTTTPPQTLATTAFSTAVTTCPSTTPGSFSQETTKGSAFTTESETLPASNHSQRSMMTISTDIAVLRPTGSNPGILPSTSQLTTQKTTLTTSESLQKTTKSHQINSRQTILIIACCVGFVLMVLLFLAFLHRFHGLWYMKMMWAWLQAKRKPRKAPSRNICYDAFVSYSERDAYWVENLMVQELENFNPPFKLCLHKRDFIPGKWIIDNIIDSIEKSHKTVFVLSENFVKSEWCKYELDFSHFRLFDENNDAAILILLEPIEKKAIPQRFCKLRKIMNTKTYLEWPMDEAQREGFWVNLRAAIKSYFLGRLVPRGRGAAEAATRKQRITETESPYQELQGQRSDVYSDLNTQRPYYK
modifications: CER122 protein
- bright field microscopy of HCC827 co-culture [1]: cluster of dead HCC827 EGFR^+ cells surrounded by phagocytic CER122^+ T cells
- phagocytic uptake of A549 ALK+ cells, time course (ALK+A549 cells): phagocytic events by CER122-transduced T cells
